Data set [1] concerns OVCAR8/LGR5 cells. In words: Growth rate inhibition assay (CCK8, 120 h exposure). In kind it is cell-based, human.
Data set [2] in a line: Stability of FcST4-MMAE (storage, low pH, freeze and thaw). The format is physicochemical. The method, then:
Based on the hypothesis that RSPO1 could be used to target cytotoxic drugs selectively to CSC, a compound that contained 2 binding domains and armed this with the cytotoxin monomethylaurostatin (R1FF-MMAE) was generated. Since affinity of a ligand can be affected by the number of binding sites, tests were performed to see if the potency of R1FF-MMAE could be further enhanced by increasing the number of binding domains. A vector capable of expressing a protein containing 4 modified binding domains was constructed, and the FcST4-His protein was successfully produced in transiently transfected HEK293E cells and purified using nickel and ion exchange resins. Following attaching MMAE to the polypeptide using the sortase reaction, this drug (FcST4-MMAE) was characterized using gel electrophoresis, HPLC analysis on ion exchange and size exclusion columns, Western blot, and cytotoxicity testing.
To assess the stability of the FcST4-MMAE molecule, the sample was subjected to multiple freeze and thaw cycles.

In data set [3] the test system is HEK293e empty vector cells versus cells overexpressing LGR5 receptors. In words: FcST4-MMAE cytotoxicity assay (CCK8, day 6). In kind it is cell-based, human. The note with it: batches 2-6.
For data set [4], the system named is OVCAR8 cells expressing empty vector versus cells overexpressing LGR5 receptors. In words: FcST4-MMAE cytotoxicity assay. In kind it is cell-based, human.
A short description of data set [5]: Plasma pharmacokinetics after IV injection (ELISA). A general note: In an ELISA, binding on a coated surface is turned into a signal by an enzyme label.
Setting [6] is: OVCAR8/EV and OVCAR8/LGR5, proteins produced in ExpiCHO.
The mark [7] stands for this setting: OVCAR8/EV vs OVCAR8/LGR5, 120 h, Fu1/Fu2 binding-disabling mutation study.

Residue numbers refer to the chain shown, from its start. Numbers in names are those of the source. Like-named read-outs stand apart in the source and are kept apart here.

B1: FcF2Δlinker-MMAE (conjugate)
chain: EPKSCDKTHTCPPCPAPELLGGPSVFLFPPKPKDTLMISRTPEVTCVVVDVSHEDPEVKFNWYVDGVEVHNAKTKPREEQYNSTYRVVSVLTVDHHDWLNGKEYKCKVSNKALPAPIEKTISKAKGQPREPQVYTLPPSRDELTKNQVSLTCLVKGFYPSDIAVEWESNGQPENNYKTTPPVLDSDGSFFLYSKLTVDKSRWQQGNVFSCSVMHEALHSHYTQKSLSLSPGKSRGIKGKRQRRISAEGSQACAKGCELCSEVNGCLKCSPKLFILLERNDIRQVGVCLPSCPPGYFDARNPDMNKCIKCKIEHCEACFSHNFCTKCKEGLYLHKGRCYPACPEGSSAANGTMECSSPLPETGGG
modifications: non-natural residues
On to B1, for which, in data set [1] (setting [6]), the “IC50 values or degree of selectivity compared with FcF2-MMAE” value was “no clear differences in IC50 values or degree of selectivity”; the “potency compared with FcF2-MMAE” value is “appeared to be less potent against both LGR5-poor and LGR5-rich cells”.

B2: FcST4-MMAE: Mutated Fc with two receptor binding domains (ST) in series per chain (4 in dimer), sortase-conjugated to MMAE (conjugate)
chain: EPKSCDKTHTCPPCPAPELLGGPSVFLFPPKPKDTLMISRTPEVTCVVVDVSHEDPEVKFNWYVDGVEVHNAKTKPREEQYNSTYRVVSVLTVDHHDWLNGKEYKCKVSNKALPAPIEKTISKAKGQPREPQVYTLPPSRDELTKNQVSLTCLVKGFYPSDIAVEWESNGQPENNYKTTPPVLDSDGSFFLYSKLTVDKSRWQQGNVFSCSVMHEALHSHYTQKSLSLSPGKGGGGSGGGGSSRGIKGKRQRRISAEGSQACAKGCELCSEVNGCLKCSPKLFILLERNDIRQVGVCLPSCPPGYFDARNPDMNKCIKCKIEHCEACFSHNFCTKCKEGLYLHKGRCYPACPEGSSAANGTMECSSPGGGGSGGGGSSRGIKGKRQRRISAEGSQACAKGCELCSEVNGCLKCSPKLFILLERNDIRQVGVCLPSCPPGYFDARNPDMNKCIKCKIEHCEACFSHNFCTKCKEGLYLHKGRCYPACPEGSSAANGTMECSSPGGGGSGGGGSLPETGGG
modifications: non-natural residues
For B2, in data set [2] (4 cycles), the “stability to freeze and thaw cycles (SEC130 trace)” value was “no significant change in the SEC130 trace”. Also, the stability result in data set [2] (at 4° C.) and in data set [2] (low pH of 3.0) was “remarkably stable” in each case. Besides, the “difference in targeted killing, empty vector vs LGR5-overexpressing cells” value in data set [3] and in data set [4] (OVCAR8) was “not statistically significant” throughout. Also, the “effect of increase in binding domains on potency” value in data set [4] (cytotoxicity testing) is listed as “did not enhance potency”.

B3: FcF2-Q71R-MMAE (conjugate)
chain: EPKSCDKTHTCPPCPAPELLGGPSVFLFPPKPKDTLMISRTPEVTCVVVDVSHEDPEVKFNWYVDGVEVHNAKTKPREEQYNSTYRVVSVLTVDHHDWLNGKEYKCKVSNKALPAPIEKTISKAKGQPREPQVYTLPPSRDELTKNQVSLTCLVKGFYPSDIAVEWESNGQPENNYKTTPPVLDSDGSFFLYSKLTVDKSRWQQGNVFSCSVMHEALHSHYTQKSLSLSPGKGGGGSGGGGSSRGIKGKRQRRISAEGSQACAKGCELCSEVNGCLKCSPKLFILLERNDIRRVGVCLPSCPPGYFDARNPDMNKCIKCKIEHCEACFSHNFCTKCKEGLYLHKGRCYPACPEGSSAANGTMECSSPGGGGSGGGGSLPETGGG
modifications: non-natural residues
On to B3, for which, in data set [1] (setting [7]), the IC50 ratio is 5.1.

B4: FcF2-R28A-MMAE: FcF2-MMAE with R28A substitution in the Fu1-Fu2 region (SEQ ID NO: 98) (conjugate)
chain: B3 chain with R250A, R293Q
modifications: non-natural residues
Regarding B4, in data set [1], the “potency and selectivity for LGR5-rich cells compared with FcF2-MMAE (WT)” value is reported as “neither the R28A nor the R30A mutation altered potency of selectivity”. Also, in data set [5] (IV injection), the “increase of AUC0-120 versus FcF2-MMAE (WT)” value is recorded as 3.4 fold and the “initial half-life versus FcF2-MMAE (WT)” value is “prolonged the initial half-life”. In data set [5] (early phase of the plasma decay curve), the “plasma concentration higher than that of FcF2-MMAE” value was > 2 orders of magnitude.

B5: FcF2-F106R-F110R-MMAE (conjugate)
chain: B3 chain with R293Q, F328R, F332R
modifications: non-natural residues
With B5, the IC50 ratio in data set [1] (setting [7]) was found to be 2.1.

B6: FcF-Q71R-F106R-F110R-MMAE (conjugate)
chain: B3 chain with F328R, F332R
modifications: non-natural residues
Regarding B6, the IC50 ratio result in data set [1] (setting [7]) is listed as “selectivity was abolished”.

B7: FcF2-R30A-MMAE: FcF2-MMAE with R30A substitution in the Fu1-Fu2 region (SEQ ID NO: 102) (conjugate)
chain: B3 chain with R252A, R293Q
modifications: non-natural residues
Regarding B7, the “potency and selectivity for LGR5-rich cells compared with FcF2-MMAE (WT)” value in data set [1] is on record as “neither the R28A nor the R30A mutation altered potency of selectivity”.

B8: FcF2-PNU159682: FcF2-His conjugated with PNU159682, an anthracycline derivative, using sortase A (conjugate)
chain: EPKSCDKTHTCPPCPAPELLGGPSVFLFPPKPKDTLMISRTPEVTCVVVDVSHEDPEVKFNWYVDGVEVHNAKTKPREEQYNSTYRVVSVLTVDHHDWLNGKEYKCKVSNKALPAPIEKTISKAKGQPREPQVYTLPPSRDELTKNQVSLTCLVKGFYPSDIAVEWESNGQPENNYKTTPPVLDSDGSFFLYSKLTVDKSRWQQGNVFSCSVMHEALHSHYTQKSLSLSPGKGGGGSGGGGSSRGIKGKRQRRISAEGSQACAKGCELCSEVNGCLKCSPKLFILLERNDIRQVGVCLPSCPPGYFDARNPDMNKCIKCKIEHCEACFSHNFCTKCKEGLYLHKGRCYPACPEGSSAANGTMECSSPGGGGSGGGGSLPET
modifications: cyclised or stapled
With B8, the IC50 ratio entry in data set [1] was “approximately 10”.

(Values after patent publication US20240269303A1, “CELL TARGETING CONSTRUCTS AND USES THEREOF” (Research Development Foundation, priority 2022, published 2024).)
